Measured values as given in US20230312724A1 (KADMON, published 2023).
Where two headings read alike, the source gives them in different places.

T1: mouse B7-H4 expressed on cells (mouse, UniProt Q7TSP5 25-257)
T1 construct: also called cellular mB7-H4; mB7-H4/CT26
T1 sequence: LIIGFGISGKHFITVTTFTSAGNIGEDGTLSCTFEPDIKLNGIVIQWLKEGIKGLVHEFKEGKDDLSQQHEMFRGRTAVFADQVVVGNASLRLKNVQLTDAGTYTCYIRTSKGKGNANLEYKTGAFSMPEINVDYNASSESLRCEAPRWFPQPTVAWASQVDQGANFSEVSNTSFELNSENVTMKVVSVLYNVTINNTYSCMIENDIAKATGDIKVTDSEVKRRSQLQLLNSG

T2: hB7-H4 (soluble human B7-H4, construct not named) (human, UniProt Q7Z7D3 25-259, limits assumed)
T2 construct: also called soluble hB7-H4
T2 sequence: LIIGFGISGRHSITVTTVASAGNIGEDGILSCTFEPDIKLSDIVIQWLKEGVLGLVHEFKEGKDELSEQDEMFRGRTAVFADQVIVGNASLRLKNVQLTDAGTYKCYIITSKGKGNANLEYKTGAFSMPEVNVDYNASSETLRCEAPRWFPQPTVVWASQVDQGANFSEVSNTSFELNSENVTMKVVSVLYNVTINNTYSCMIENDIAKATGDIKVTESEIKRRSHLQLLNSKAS

T3: human B7-H4 expressed on cells (human, UniProt Q7Z7D3 25-282)
T3 construct: Transfected CHO cells or tumor cell lines that carry hB7-H4; also called cellular hB7-H4
T3 sequence: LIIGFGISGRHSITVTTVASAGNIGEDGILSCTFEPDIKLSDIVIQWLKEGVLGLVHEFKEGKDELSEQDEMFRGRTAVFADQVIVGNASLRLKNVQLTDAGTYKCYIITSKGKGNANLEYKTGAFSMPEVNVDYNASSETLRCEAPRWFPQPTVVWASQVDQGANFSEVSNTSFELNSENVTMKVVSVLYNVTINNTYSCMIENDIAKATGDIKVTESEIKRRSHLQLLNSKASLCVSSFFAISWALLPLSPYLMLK

T4: mB7-H4 (soluble mouse B7-H4, construct not named) (mouse, UniProt Q7TSP5 25-257, limits assumed)
T4 sequence: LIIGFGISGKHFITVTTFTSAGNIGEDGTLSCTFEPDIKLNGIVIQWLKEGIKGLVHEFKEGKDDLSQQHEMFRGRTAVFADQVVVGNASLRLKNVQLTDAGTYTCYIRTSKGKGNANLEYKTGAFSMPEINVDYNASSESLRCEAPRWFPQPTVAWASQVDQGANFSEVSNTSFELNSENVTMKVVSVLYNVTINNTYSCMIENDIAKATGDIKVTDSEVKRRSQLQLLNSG

T5: mouse B7-H4-his (mouse, UniProt Q7TSP5 25-257)
T5 construct: also called mB7-H4-his; mB7-H4-His; not shown: his tag
T5 sequence: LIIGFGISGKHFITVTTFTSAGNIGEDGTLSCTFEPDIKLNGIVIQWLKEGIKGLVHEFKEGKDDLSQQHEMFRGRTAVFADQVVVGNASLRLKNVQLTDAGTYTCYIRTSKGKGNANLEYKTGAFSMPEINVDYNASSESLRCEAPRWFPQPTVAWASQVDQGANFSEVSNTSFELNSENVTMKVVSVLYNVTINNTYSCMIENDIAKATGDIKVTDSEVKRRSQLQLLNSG

T6: human B7-H4-his (human, UniProt Q7Z7D3 25-259)
T6 construct: also called hB7-H4-his; hB7-H4 his; not shown: his tag
T6 sequence: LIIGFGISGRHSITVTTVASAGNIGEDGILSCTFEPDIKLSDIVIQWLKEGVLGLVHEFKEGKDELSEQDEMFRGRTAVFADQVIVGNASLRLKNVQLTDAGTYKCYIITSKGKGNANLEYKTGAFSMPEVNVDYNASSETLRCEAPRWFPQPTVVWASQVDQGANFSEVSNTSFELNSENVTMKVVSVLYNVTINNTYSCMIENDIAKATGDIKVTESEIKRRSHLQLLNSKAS


What was measured:
[1] = molecular target: T1, mouse B7-H4 expressed on cells; test: flow cytometry, CHO cells expressing mB7-H4
[2] = molecular target: T2, hB7-H4 (soluble human B7-H4, construct …); test: ELISA, hB7-H4
Outline: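 Coat: B7-H4-Fc or his-tagged protein, ~1-2 μg/ml, 4° C overnight. Block 3% PBS+milk; serial antibody dilutions 1-1.5 h RT; wash PBS-T (0.05%); HRP anti-hFab; TMB, 1N H₂SO₄ stop; OD450. EC50 from dose-response fit.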

[3] = molecular target: T7, IgC domain of mouse B7-H4-Fc (mouse; human); test: ELISA, coated mB7-H4 IgC domain (title on the sheet: IgC domain of mB7H4)
T7 construct: also called mB7-H4 IgC domain
Description: (§1) About 1-2 μg/ml of human or mouse B7-H4-Fc (or his-tagged) was immobilized on ELISA plates (Immuno 2HB, Thermo scientific, cat #3455) at 4° C. overnight. After blocking the plates with 3% PBS+milk, serial diluted antibodies were added to the blocked plates and incubated at RT for 1-1.5 h. After washing the plates with PBS-T (0.05%), horse radish peroxidase (HRP)-conjugated antibody targeting the hFab was added to the plate. Signals were developed by adding 3,3′,5,5′-Tetramethylbenzidine (TMB (followed 1N of H₂SO₄ to stop the reaction. The OD at 450 nm was read by ELISA plate reader (Infinite M1000 from TECAN). GraphPad from Prism was used to plot OD450 vs. antibody concentration curve and to calculate the EC50 values.

[4] = molecular target: T8, IgV domain of mouse B7-H4-Fc (mouse; human); test: ELISA, coated mB7-H4 IgV domain
T8 construct: also called mB7-H4 IgV domain
Description: as §1

[5] = molecular target: T3, human B7-H4 expressed on cells; test: flow cytometry, SK-BR-3 cells
Outline: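 Antibody or fusion protein dilution series applied to 1×10⁶ cells/ml in ice-cold FACS buffer, 1 h at 4 °C; cells washed thrice, labelled 30 min at 4 °C in darkness with 1:200 secondary antibody, washed, resuspended in PBS and analysed by flow cytometry.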

[6] = molecular target: T4, mB7-H4 (soluble mouse B7-H4, construct …); test: ELISA and SPR (Biacore)
Description: as §1
(§2) Surface plasmon resonance experiments were performed using a Biacore T200 instrument equipped with CM5 sensor chips. The system was equilibrated in running buffer HBS-EP pH 7.4. The ligands were immobilized using amine-coupling chemistry. The surfaces of flow cells one through four were activated for 5 min using an amine coupling kit at a flow rate of […]. The ligands (human B7-H4-Fc, human B7-H4-hism and mouse B7-H4-Fc; at a concentration of 5 μg/ml in 10 mM sodium acetate, pH 5.0) were immobilized at a density of 50-100 RU on flow cell 2, 3, 4 respectively. Flow cell 1 was left blank to serve as a reference surface. All flow cell surfaces were blocked with a 5 min injection of 1 M ethanolamine, pH 8.0. To collect kinetic binding data, the respective analyte (diluted in 1×HBS-EP buffer, pH 7.4) was injected over the four flow cells at concentrations of 100 nM to 0.1 nM at a flow rate of […] and at a temperature of 25° C. The protein complex was allowed to associate and dissociate for 180 seconds and 1000 or 1200 seconds, respectively. The surfaces were regenerated with a 30 second injection of 1.5 M NaCl/0.05 M NaOH. The data were fit to a simple 1:1 interaction model using the Langmuir fit option available within the Biaevaluaton software

[7] = molecular target: T9, IgC domain of human B7-H4-Fc (human); test: ELISA, coated hB7-H4 IgC domain (title on the sheet: IgC domain of hB7H4)
T9 construct: also called hB7-H4 IgC domain
Description: as §1

mouse B7-H4-his = molecular target: T5, mouse B7-H4-his; test: ELISA, coated mB7-H4-his
Description: as §1

[8] = molecular target: T2, hB7-H4 (soluble human B7-H4, construct …); test: SPR (Biacore)
Outline: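 Kinetic constants came from a 1:1 Langmuir fit of binding at 25 °C in HBS-EP, pH 7.4. Analyte (100 nM to 0.1 nM) flowed for 180 s, then dissociated for 1000 or 1200 s, over amine-coupled human B7-H4-Fc, human B7-H4-his or mouse B7-H4-Fc surfaces at 50-100 RU.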

mouse B7-H4-Fc [9] = molecular target: T10, mouse B7-H4-Fc (mouse; human); test: ELISA, coated mB7-H4-Fc (title on the sheet: Binding to mB7-H7-Fc)
T10 construct: also called mB7-H4-Fc; mB7-H4-hFc
Description: as §1

[10] = molecular target: T1, mouse B7-H4 expressed on cells; test: flow cytometry, CHO cells expressing mB7-H4; remark: listed apart in the source
Description: (§3) ELISA experiments were performed to determine binding to hB7-H4-Fc (FIG. 3A), hB7-H4-his (FIG. 3B), mB7-H4-Fc (FIG. 3C), and hB7-H4 IgV domain (FIG. 3D). Flow cytometry experiments were performed to determine binding to CHO cells expressing hB7-H4 (FIG. 3E) or mB7-H4 (FIG. 3F).
Cells were harvested, washed once, and then re-suspended to the concentration of 1×10⁶ cells/ml in ice cold FACS Buffer. 25 μl of cell suspension was added to each well of a 96-well round-bottom microliter plate. Serially diluted antibodies or fusion proteins were added to each well and incubated for 1 hour at 4° C. Cells were washed three times by centrifugation at 1500 rpm for 5 minutes, and then stained with secondary antibody (1:200 dilution) for 30 min at 4° C. in the dark. Cells were washed once, re-suspended in 100 μl PBS buffer and then analyzed using Guava Flow Cytometry EasyCyte system.

human B7-H4-Fc = molecular target: T11, human B7-H4-Fc (human); test: SPR (Biacore)
T11 construct: also called hB7-H4-Fc; hB7-H4 Fc
Description: as §2
(§4) The kinetics for binding of the different antibodies to their targets were examined using Biacore analysis.

human B7-H4-his = molecular target: T6, human B7-H4-his; test: SPR (Biacore)
Description: as §2, §4

mouse B7-H4-Fc [11] = molecular target: T10, mouse B7-H4-Fc; test: ELISA, coated mB7-H4-Fc
Description: as §3, §1

T10 sequence (chain, as listed by the source): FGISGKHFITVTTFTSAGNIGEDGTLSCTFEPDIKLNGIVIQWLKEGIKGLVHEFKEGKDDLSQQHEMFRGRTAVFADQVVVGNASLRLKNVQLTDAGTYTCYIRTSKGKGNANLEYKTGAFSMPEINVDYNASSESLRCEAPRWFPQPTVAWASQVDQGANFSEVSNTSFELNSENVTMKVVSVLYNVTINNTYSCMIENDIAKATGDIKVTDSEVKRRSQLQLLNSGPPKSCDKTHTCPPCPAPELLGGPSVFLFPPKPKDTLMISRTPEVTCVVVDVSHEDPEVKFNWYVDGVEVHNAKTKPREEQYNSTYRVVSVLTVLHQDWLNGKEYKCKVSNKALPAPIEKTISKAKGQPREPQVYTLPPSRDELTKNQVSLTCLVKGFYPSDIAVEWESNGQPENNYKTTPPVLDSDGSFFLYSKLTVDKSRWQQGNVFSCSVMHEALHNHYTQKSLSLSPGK
T7 sequence (chain, as listed by the source): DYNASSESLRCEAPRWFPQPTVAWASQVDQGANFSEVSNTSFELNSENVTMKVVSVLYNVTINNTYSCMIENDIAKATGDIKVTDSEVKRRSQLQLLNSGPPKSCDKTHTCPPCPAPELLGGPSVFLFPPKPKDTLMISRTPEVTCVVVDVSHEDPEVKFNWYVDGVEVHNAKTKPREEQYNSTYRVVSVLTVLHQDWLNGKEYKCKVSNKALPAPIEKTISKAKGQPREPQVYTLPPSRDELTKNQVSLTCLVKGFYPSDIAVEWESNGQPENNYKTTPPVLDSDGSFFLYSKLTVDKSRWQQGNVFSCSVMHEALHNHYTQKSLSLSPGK
T8 sequence (chain, as listed by the source): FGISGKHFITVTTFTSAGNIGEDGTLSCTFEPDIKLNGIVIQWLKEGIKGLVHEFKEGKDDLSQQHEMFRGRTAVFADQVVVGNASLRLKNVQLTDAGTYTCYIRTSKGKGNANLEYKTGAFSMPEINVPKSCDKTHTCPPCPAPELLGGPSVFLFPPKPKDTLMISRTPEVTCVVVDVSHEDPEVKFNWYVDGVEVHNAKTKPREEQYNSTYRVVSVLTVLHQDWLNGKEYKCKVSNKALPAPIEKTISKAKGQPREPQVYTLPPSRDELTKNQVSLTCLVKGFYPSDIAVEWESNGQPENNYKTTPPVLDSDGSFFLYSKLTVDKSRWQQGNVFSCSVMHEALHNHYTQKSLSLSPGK
T11 sequence (chain, as listed by the source): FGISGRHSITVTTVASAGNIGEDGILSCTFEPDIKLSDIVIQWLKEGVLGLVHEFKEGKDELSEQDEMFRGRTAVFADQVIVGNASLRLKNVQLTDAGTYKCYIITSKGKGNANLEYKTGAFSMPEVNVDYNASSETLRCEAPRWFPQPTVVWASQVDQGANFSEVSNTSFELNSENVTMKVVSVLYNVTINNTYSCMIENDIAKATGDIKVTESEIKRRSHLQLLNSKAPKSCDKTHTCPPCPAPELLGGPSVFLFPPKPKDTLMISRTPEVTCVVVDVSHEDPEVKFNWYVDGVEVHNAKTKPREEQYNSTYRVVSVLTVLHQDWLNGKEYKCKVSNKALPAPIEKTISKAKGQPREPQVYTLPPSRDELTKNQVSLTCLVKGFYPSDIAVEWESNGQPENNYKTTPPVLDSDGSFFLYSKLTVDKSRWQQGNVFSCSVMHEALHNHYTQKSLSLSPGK
T9 sequence (chain, as listed by the source): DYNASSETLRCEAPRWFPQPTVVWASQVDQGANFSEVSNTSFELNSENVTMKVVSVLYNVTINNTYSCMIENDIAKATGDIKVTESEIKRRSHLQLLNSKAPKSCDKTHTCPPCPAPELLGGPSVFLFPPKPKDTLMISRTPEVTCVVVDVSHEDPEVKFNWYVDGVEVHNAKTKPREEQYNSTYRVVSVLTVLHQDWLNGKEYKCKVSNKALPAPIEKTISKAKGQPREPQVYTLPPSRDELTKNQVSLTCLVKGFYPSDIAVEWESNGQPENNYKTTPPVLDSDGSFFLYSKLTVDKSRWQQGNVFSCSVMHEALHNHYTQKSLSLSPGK

binding result [1] | EC50 [2] | EC50 [5] | binding result [6] | Kd [8] | Kd (human B7-H4-Fc) | Kd (human B7-H4-his) | Binder | binding result [3] | binding result [4] | binding result [7] | binding result (mouse B7-H4-his) | binding result (mouse B7-H4-Fc [9]) | binding result [10] | binding result (mouse B7-H4-Fc [11])
no binding (tested: log 2 nM (100 nM)) | 41 pM | 52100 pM | no binding | 317 pM | – | – | 1D3/45A2 (antibody, human IgG1, V domains shown, 1D3 VH with 45A2 VL) VH: EVQLLESGGGLVQPGGSLRLSCAASGFTFNTHAMHWVRQAPGKGLEWVSAISGSGGSTYYADSVKGRFTISRDISKNTLYLQMNSLRAEDTAVYYCARLLGRFGEYGMDVWGQGTTVTVSS VL: DIQMTQSPSSLSASVGDRVTITCRASQNIYTWLAWYQQKPGKAPKLLIYDATNLPTGVPSRFSGSGSGTDFTLTISSLQPEDFATYYCQQSYSTRWTFGGGTKVEIK | no binding (tested: axis value -8 (labelled log nM)) | no binding (tested: axis value -8 (labelled log nM)) | no binding (tested: axis value -8 (labelled log nM)) | no binding (tested: axis value -8 (labelled log nM)) | no binding (tested: axis value -8 (log scale labelled nM)) | – | –
– | 48 pM | 840 pM | no binding | 81.9 pM | 95.1 pM | 84.9 pM | 3F2/3F2 (antibody, human IgG1, V domains shown) VH: QVQLVQSGAEVKKPGASVKVSCKASGYTFTAQYMYWVRQAPGQGLEWMGRINPTSGNTVYAQKLQGRVTMTRDTSTSTVYMELSSLRSEDTAVYYCARGINWFDPWGQGTLVTVSS VL: not shown | no binding (tested: axis value -8 (labelled log nM)) | no binding (tested: axis value -8 (labelled log nM)) | – | no binding (tested: axis value -8 (labelled log nM)) | – | no binding (tested: axis value -7 (log scale labelled nM)) | no binding (tested: axis value -8 (log scale labelled nM))
